From the supplement of paper PMC7125110
± gives the standard error. For some of these results: This sample holds only a part of the variants without activity.

B1: glmS ribozyme (parent)
chain: AUAAAAGCGCCAGAACUACAGAAAUGUAGUUGACGAGGAGGAGGUUUAUCGAAUUUUCGGCGGAUGCCUCCAAA

Columns and labels:
Conditions in all cases: with glucosamine-6-phosphate
[1] = variants of: B1; assay: kcat; higher = faster cleavage; RNA array
Method in brief: (§1)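 Over ~14 h at 37 °C, tiles were imaged as glucosamine-6-phosphate (40 μM to 10 mM) in HEPES/KCl/Mg(OAc)2 buffer flowed across sequenced MiSeq chips. The chips carried barcoded ribozyme variants transcribed in situ by E. coli RNA polymerase and tracked with a hybridised Cy3 probe. After normalisation to baseline and to non-cleaving reference variants, one- or two-exponential decay fits of per-tile medians gave kobs. kcat and KM followed from weighted Michaelis–Menten fits across concentrations.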

[2] = variants of: B1; assay: self-cleavage kobs at 640 uM GlcN6P; higher = faster cleavage; RNA array
Method in brief: as §1

[3] = variants of: B1; assay: self-cleavage kobs at 2500 uM GlcN6P; higher = faster cleavage; RNA array
Method in brief: as §1

[4] = variants of: B1; assay: KM; higher = weaker cofactor use; RNA array
Method in brief: as §1

[5] = variants of: B1; assay: self-cleavage kobs at 160 uM GlcN6P; higher = faster cleavage; RNA array
Method in brief: as §1

[6] = variants of: B1; assay: self-cleavage kobs at 10000 uM GlcN6P; higher = faster cleavage; RNA array
Method in brief: as §1

[7] = variants of: B1; assay: self-cleavage kobs at 40 uM GlcN6P; higher = faster cleavage; RNA array
Method in brief: as §1

Row | Variant | kcat [1] [s⁻¹] | self-cleavage kobs at 640 uM GlcN6P [2] [s⁻¹] | self-cleavage kobs at 2500 uM GlcN6P [3] [s⁻¹] | KM [4] [µM] | self-cleavage kobs at 160 uM GlcN6P [5] [s⁻¹] | self-cleavage kobs at 10000 uM GlcN6P [6] [s⁻¹] | self-cleavage kobs at 40 uM GlcN6P [7] [s⁻¹]
1 | U47G C50A C67U | 4.13e-05 ± 1.8e-05 | 6.02e-05 ± 2.6e-05 | 7.44e-05 ± 3.1e-05 | – | – | – | –
2 | G29C A39C | 0.000582 ± 8.5e-05 | 7.25e-05 ± 1.1e-05 | 0.000212 ± 3e-05 | 4360 ± 1100 | 6.14e-05 ± 2.9e-05 | 0.000406 ± 4.2e-05 | –
3 | U57C C68A | 1.48e-05 ± 1.3e-06 | – | – | 184 ± 90 | – | < 1e-05 | –
4 | C50U C61A C68U | 2.59e-05 ± 6.9e-06 | – | – | – | – | – | –
5 | A33G C68G | 3.02e-05 ± 6e-06 | 3.59e-05 ± 1.5e-05 | – | – | 3.17e-05 ± 1.3e-05 | – | –
6 | U54G U55A C70G | 0.000128 ± 1.7e-05 | 0.000102 ± 1.5e-05 | 0.000157 ± 2.6e-05 | – | – | 0.000145 ± 2.6e-05 | 6.4e-05 ± 1.6e-05
7 | U55G U56G | 0.0156 ± 0.0072 | 0.00307 ± 0.00039 | 0.00561 ± 0.00078 | – | 0.000797 ± 0.00014 | 0.0215 ± 0.0038 | 0.000205 ± 3e-05
8 | C50U G59A | < 1e-05 | – | < 1e-05 | – | < 1e-05 | < 1e-05 | < 1e-05
9 | U56C G66A | 0.00312 ± 0.0012 | 0.000501 ± 8.4e-05 | 0.00117 ± 0.00022 | – | 8.16e-05 ± 1.9e-05 | 0.0022 ± 0.00026 | 6.93e-05 ± 1.3e-05
10 | A6U G66U | < 1e-05 | – | – | 1280 ± 630 | – | – | –
11 | G32U A33C | < 1e-05 | < 1e-05 | – | – | < 1e-05 | – | –
12 | U31C U57G C67A | < 1e-05 | – | – | – | < 1e-05 | – | –
13 | U46C C68U | 0.000934 ± 0.0002 | 0.000387 ± 6e-05 | 0.000933 ± 0.00014 | 1480 ± 580 | 7.49e-05 ± 1.3e-05 | 0.000743 ± 7.7e-05 | 2.43e-05 ± 7.6e-06
14 | G43U A52G | < 1e-05 | < 1e-05 | – | 5960 ± 590 | < 1e-05 | – | < 1e-05
15 | C10U G29C | 1.05e-05 ± 2.4e-06 | – | – | – | – | – | –
16 | U55C U65C | 0.000217 ± 5e-05 | 7.31e-05 ± 1.1e-05 | 0.00011 ± 1.9e-05 | – | – | 0.000217 ± 3.1e-05 | –
17 | U47C A48U | 0.000264 ± 3.4e-05 | 9.41e-05 ± 2.5e-05 | 0.000174 ± 3.2e-05 | 1270 ± 340 | – | – | –
18 | U56G G59A | 5.14e-05 ± 3e-06 | – | 3e-05 ± 8.2e-06 | 1920 ± 460 | – | 4.3e-05 ± 6.1e-06 | –

Row | Variant | kcat [1] [s⁻¹] | self-cleavage kobs at 640 uM GlcN6P [2] [s⁻¹] | self-cleavage kobs at 2500 uM GlcN6P [3] [s⁻¹] | KM [4] [µM] | self-cleavage kobs at 160 uM GlcN6P [5] [s⁻¹] | self-cleavage kobs at 10000 uM GlcN6P [6] [s⁻¹] | self-cleavage kobs at 40 uM GlcN6P [7] [s⁻¹]
19 | A33U G66A | 6.76e-05 ± 1.2e-06 | – | 3.2e-05 ± 1e-05 | 2790 ± 180 | – | 5.28e-05 ± 6.4e-06 | –
20 | A33C U54A | 0.00129 ± 0.00021 | 9.44e-05 ± 1.2e-05 | 0.000323 ± 6.1e-05 | 7810 ± 1700 | 4.1e-05 ± 1.7e-05 | 0.000722 ± 0.0001 | –
21 | U30A U56C | 0.0028 ± 0.00091 | 0.000126 ± 2.4e-05 | 0.000369 ± 8.1e-05 | – | – | 0.00113 ± 0.00015 | –
22 | U30A U46G | 0.000804 ± 0.00016 | – | 0.000638 ± 0.00022 | – | – | 0.000702 ± 8.5e-05 | 4.09e-05 ± 1.5e-05
23 | C67G C68U | 7.04e-05 ± 1.8e-06 | 5.35e-05 ± 6.6e-06 | 6.33e-05 ± 6e-06 | 234 ± 34 | 2.51e-05 ± 1e-05 | 6.92e-05 ± 6.7e-06 | –
24 | U46C C50U | 1.22e-05 ± 2e-06 | – | – | – | – | – | < 1e-05
25 | U47A C68U | 0.00394 ± 0.0013 | 0.00068 ± 0.00012 | 0.00129 ± 0.00025 | 3290 ± 1500 | 0.000161 ± 3.2e-05 | 0.00346 ± 0.00049 | 7.13e-05 ± 1.3e-05
26 | A15C U46A | 0.000358 ± 0.00016 | 0.000102 ± 2.1e-05 | 0.000152 ± 3.8e-05 | – | – | 0.000416 ± 9.4e-05 | –
27 | A53U G66C | 0.000389 ± 9.5e-05 | 0.000103 ± 2.5e-05 | 0.000187 ± 4.6e-05 | 1980 ± 890 | – | 0.000387 ± 0.00011 | –
28 | G13A U57C | 7.9e-05 ± 5.5e-06 | – | 2.88e-05 ± 9.2e-06 | 4540 ± 780 | – | 5.42e-05 ± 8.5e-06 | < 1e-05
29 | G13U U30G | 0.000187 ± 3.9e-05 | 2.49e-05 ± 9.4e-06 | 0.000105 ± 1.2e-05 | 2660 ± 1200 | – | 0.000136 ± 2e-05 | –
30 | G13C U47G | 3.48e-05 ± 2.1e-06 | – | – | – | – | 3.53e-05 ± 8.5e-06 | < 1e-05
31 | G66U C70U | 0.00205 ± 0.00047 | 0.000507 ± 4.8e-05 | 0.00124 ± 0.00016 | 1830 ± 590 | 0.000141 ± 1.7e-05 | 0.00175 ± 0.00019 | 6.67e-05 ± 8e-06
32 | A15G C16G C71G | 0.000103 ± 1.4e-05 | – | 0.000115 ± 4e-05 | – | – | 9.34e-05 ± 2.6e-05 | –
33 | G29U C61G | 3.41e-05 ± 1.3e-05 | – | – | – | – | < 1e-05 | –
34 | A14U U65A | 0.0015 ± 0.00017 | 0.000203 ± 2.7e-05 | 0.000449 ± 0.00012 | 4460 ± 760 | 4.54e-05 ± 1.3e-05 | 0.00105 ± 0.00012 | –
35 | C58U C70A | 2.29e-05 ± 6.9e-06 | 3.84e-05 ± 1.4e-05 | – | – | – | – | –
